# Molecular target: Human Myelin Basic Protein (Homo sapiens, UniProt P02686)
# Assay: phage display, NGS count
# Conditions: not given
# Chain of Human Myelin Basic Protein (P02686 135-304 limits assumed): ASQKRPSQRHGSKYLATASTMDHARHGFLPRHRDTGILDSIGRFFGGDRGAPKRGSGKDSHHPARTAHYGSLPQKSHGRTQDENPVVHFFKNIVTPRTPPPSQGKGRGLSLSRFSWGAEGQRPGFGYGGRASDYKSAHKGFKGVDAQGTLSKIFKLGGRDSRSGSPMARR
row,Substance,Count
1,TRIPILL (peptide),6
2,WDLRHSK (peptide),6

# Other lines, results leading:
row,Count,Substance
1,9,ANLSRSV (peptide)
2,9,TGNLRLY (peptide)
3,6,SGPFPLV (peptide)
4,6,MNSPLAQ (peptide)

# Molecular target: Human Myelin PLP (human) (UniProt P60201)
# Assay: phage display, NGS count
# Conditions: not given
# Chain of Human Myelin PLP (human) (P60201 2-277 limits assumed): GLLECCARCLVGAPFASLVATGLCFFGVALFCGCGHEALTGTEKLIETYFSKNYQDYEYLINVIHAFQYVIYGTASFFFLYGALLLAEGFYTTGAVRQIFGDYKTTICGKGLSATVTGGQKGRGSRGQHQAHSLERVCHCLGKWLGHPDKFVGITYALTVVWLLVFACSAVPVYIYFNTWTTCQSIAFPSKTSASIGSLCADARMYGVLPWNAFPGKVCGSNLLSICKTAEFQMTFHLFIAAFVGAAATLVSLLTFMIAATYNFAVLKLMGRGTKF
row,Substance,Count
1,IIPPTSV (peptide),31
2,QLPRNNL (peptide),28
3,MPHAPVQ (peptide),37
4,EVLYPNN (peptide),27
5,SLPSLLP (peptide),26
6,GKSYSQI (peptide),31
7,RLQPEPT (peptide),33
8,AVVAMNK (peptide),28
9,TMPIKAM (peptide),27
10,WSPHGYK (peptide),27
11,ASLTLAL (peptide),26
12,TLWAQKT (peptide),28
13,WSPHRSF (peptide),31
14,IDRVRGL (peptide),29
15,ALFQERK (peptide),27
16,SVVYQNS (peptide),26
17,NDASTVS (peptide),28
18,AHQSSVT (peptide),42
19,DRHEGHR (peptide),26

row,Substance,Count
1,VSSQEQA (peptide),34
2,HKAPLGT (peptide),29
3,TGISSTP (peptide),27
4,QRRSVIL (peptide),31
5,WNTADRL (peptide),34
6,EKSTTVA (peptide),30
7,YSDTYKH (peptide),30
8,FSLDRDG (peptide),29
9,SVLPDKL (peptide),28
10,YSSRLTA (peptide),29
11,ARFVPLT (peptide),30
12,TDVEMVP (peptide),40
13,TFPERLR (peptide),31
14,WSRISVD (peptide),26
15,IHHLESS (peptide),32
16,LPHRLNP (peptide),27
17,KPSASIY (peptide),26
18,SAQSRSF (peptide),26
19,LHQTYRP (peptide),27

# Results, then the substance that gave them:
row,Count,Substance
1,32,LNGISAL (peptide)
2,27,AQASSAR (peptide)
3,32,TRASYPQ (peptide)
4,31,NVFSATP (peptide)
5,26,MKIMPMD (peptide)
6,26,GHLQSLF (peptide)
7,29,FSTPTNV (peptide)
8,27,HLHTRPT (peptide)
9,32,SALISTR (peptide)
10,29,GPAAVII (peptide)
11,28,VGYRSAS (peptide)
12,31,SGVATYT (peptide)
13,33,QPNMLKP (peptide)
14,26,VTGPGTP (peptide)
15,26,TTTIADM (peptide)
16,28,SLPGYRH (peptide)
17,31,GNVFQTS (peptide)
18,29,LMQKPSI (peptide)
19,33,SVEKYSK (peptide)
20,28,GIPSSKN (peptide)
21,26,VTPNKAR (peptide)
22,28,VFPERRV (peptide)
23,26,LPSHASI (peptide)

row,Count,Substance
1,28,YTWTPSR (peptide)
2,28,SLNRGGA (peptide)
3,44,GSAWKKH (peptide)
4,31,EPSSFTF (peptide)
5,31,LPLRLHA (peptide)
6,27,KGVIPAT (peptide)
7,27,YSQAISA (peptide)
8,26,LPVKNLL (peptide)
9,27,IRPTHNG (peptide)
10,33,NIPSSIL (peptide)
11,29,TKITPHR (peptide)
12,29,GWSTAIR (peptide)
13,32,SGLHYAL (peptide)
14,30,DGSRDLV (peptide)
15,29,SVMWMTP (peptide)
16,28,TQPRYPS (peptide)
17,26,WHYTPSM (peptide)
18,26,GLWGPSL (peptide)
19,31,SWDVLEL (peptide)
20,28,VRTSMNH (peptide)
21,26,FRIDKSM (peptide)
22,27,VPGHISG (peptide)
23,27,VSASWMP (peptide)

# Tested on: Human MPZ
# Assay: Phage display library screening (Example 2, Python script analysis), binding to Human MPZ
# Conditions: combined unique sequence count, Python/R script analysis
# Method: Phage display library screens were used to identify peptides that bind to target proteins (including specific laminin trimers) that are expressed in human nerves, as described in Table 3. These screens were also carried out to identify peptides that could bind selectively to nerves versus muscle. Such peptides could therefore be useful for systemic in-vivo labeling of nerves during fluorescence assisted surgery. Specifically, m 13 phage libraries expressing 7 or 12 random amino acid peptides, or a cyclic peptide CX7C, on the N-terminus of the minor coat protein pIII (New England Biolabs; NEB) were processed through multiple rounds of selection for binding to target proteins expressed in nerves, or to excised human nerves, nerve extracts, or muscle, as described further below.
# For screening against the specified target proteins in Table 1, including LN211, LN411, LN421, and LN521, the phage library was processed by up to 4 binding and wash cycles. For selection, phage libraries were incubated for up to 24 hours at 4° C. in 96 well plates that had been coated with one of the target proteins. Plates were then washed with PBS and phage were eluted using 0.2M glycine pH 2.0. Phage supernatants where then neutralized with Tris pH 9.0 prior to plating on TGI bacteria and LB agar plates. Colonies were counted to determine titer followed by DNA preparation of pools of phage and NextGen sequencing. After rounds of selection, phage were pooled and amplified for iterative selection. Phage that were bound at each round were sequenced. NextGen sequencing of pools after 2, 3 and 4 rounds of selection was used to isolate candidate sequences that were analyzed further to identify those that specifically bound each unique target protein.
# Python Script Analysis: For all NEB sequence datasets, a python script was used to translate, trim, and filter the peptide sequences. The script translated the nucleotide sequences, translating amber codons as glutamine in peptide sequences, and then trimmed the end sequences that come from the vector. Secondly, the script combined the unique counts of trimmed peptides with identical sequences. […] Another python script was used to group peptides from different assays according to protein target (Myelin Protein Zero, Myelin Proteolipid Protein, Myelin Basic Protein, and Nidogen-2) and also combine the unique sequence counts for each peptide. An R script was written to merge the peptide sequences from different data files and determine peptides specific for each protein target but absent from different protein binding datasets. Peptide sequences were ranked by unique sequence count.
# Chain of Human MPZ (P25189 30-153 limits assumed): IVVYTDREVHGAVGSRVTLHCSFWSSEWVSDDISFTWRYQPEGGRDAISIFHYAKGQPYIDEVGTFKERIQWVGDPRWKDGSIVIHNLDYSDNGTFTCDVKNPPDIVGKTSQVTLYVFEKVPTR
row,Substance,Count
1,LPAESHW (Human MPZ-binding peptide),45
2,YPQARTS (Human MPZ-binding peptide),46
3,DRYLLNQ (Human MPZ-binding peptide),40
4,LVLQTTP (Human MPZ-binding peptide),37
5,LPNANNL (Human MPZ-binding peptide),41
6,CPDAARNSC (Human MPZ-binding peptide),43
7,YMKHSPG (Human MPZ-binding peptide),45
8,SYLPPFI (Human MPZ-binding peptide),41
9,MIHTRQT (Human MPZ-binding peptide),41
10,HHPLFID (Human MPZ-binding peptide),39
11,WPRPIQI (Human MPZ-binding peptide),41
12,QIAHLEY (Human MPZ-binding peptide),50
13,LVLSNPR (Human MPZ-binding peptide),46
14,AYLEDWRSMSTR (Human MPZ-binding peptide),46
15,HPLMVPS (Human MPZ-binding peptide),41
16,SNALSYF (Human MPZ-binding peptide),41
17,CLKQQTGDC (Human MPZ-binding peptide),37
18,ADNVLRRALENI (Human MPZ-binding peptide),49
19,FRVTQTA (Human MPZ-binding peptide),41
20,CSNALNKAC (Human MPZ-binding peptide),39
21,TTLVVTA (Human MPZ-binding peptide),42
22,YAPWRVF (Human MPZ-binding peptide),37
23,ALPISYL (Human MPZ-binding peptide),42
24,NTASMTT (Human MPZ-binding peptide),38
25,FEHMAVT (Human MPZ-binding peptide),42
26,VHTPYRS (Human MPZ-binding peptide),41

row,Substance,Count
1,NASVPPK (Human MPZ-binding peptide),42
2,FALPAGL (Human MPZ-binding peptide),41
3,GMVSPHHSVYRH (Human MPZ-binding peptide),51
4,AWTMRAS (Human MPZ-binding peptide),39
5,KRNLWDI (Human MPZ-binding peptide),40
6,VPLAYLR (Human MPZ-binding peptide),40
7,CGEKIMSLC (Human MPZ-binding peptide),40
8,LISPTAR (Human MPZ-binding peptide),37
9,SETESYM (Human MPZ-binding peptide),41
10,KQPAMEN,37
11,TTWPNTA (Human MPZ-binding peptide),45
12,GSWSSGF (Human MPZ-binding peptide),52
13,SGHGAFR (Human MPZ-binding peptide),42
14,NGAYSLAIRYTS (Human MPZ-binding peptide),53
15,IEQVGWR (Human MPZ-binding peptide),38
16,NPISPRN (Human MPZ-binding peptide),38
17,CYSSVADMC (Human MPZ-binding peptide),43
18,GGSKVWG (Human MPZ-binding peptide),40
19,FPSYTIS (Human MPZ-binding peptide),40
20,CRVGVTSAC (Human MPZ-binding peptide),41
21,KTPILAS (Human MPZ-binding peptide),38
22,NMSHSNR (Human MPZ-binding peptide),46
23,GEWRARIDQDVS (Human MPZ-binding peptide),65
24,CDIKDANSC (Human MPZ-binding peptide),38
25,GPVVSGM (Human MPZ-binding peptide),46
26,TLLHYSA (Human MPZ-binding peptide),40
